The values that follow come from US20240301064A1 (published 2024).

In the experiment the target is T1, human PD-1 (human, UniProt Q15116 25-167, limits assumed).
T1 construct: also called huPD-1
The experiment is described as follows: BLI, antibody on AHC tip, soluble PD-1. For orientation: BLI is a label-free optical method that tracks binding on a fibre tip over time.

Numbering of substitutions follows the chain as printed. Several values for one entry are separate records, joined by “and”; a condition that tells them apart may be missing. Equal values may be shown once.

T1 sequence (Q15116 25-167 limits assumed): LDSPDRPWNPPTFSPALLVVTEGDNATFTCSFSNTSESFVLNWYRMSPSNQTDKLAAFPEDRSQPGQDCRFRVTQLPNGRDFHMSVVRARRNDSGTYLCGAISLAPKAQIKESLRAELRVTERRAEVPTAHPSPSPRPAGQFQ

B1: PMAB217 (bispecific antibody, human IgG1, kappa)
heavy: QVQLVQSGAEVKKPGASVKVSCKASGYTFSDHYMHWVRQAPGQGLEWMGTIAPSGGRTSYAQKFQGRVTMTRDTSTSTVYMELSSLRSEDTAVYYCAADNGHASGWLYYYGMDVWGQGTTVTVSSASTKGPSVFPLAPSSKSTSGGTAALGCLVKDYFPEPVTVSWNSGALTSGVHTFPAVLQSSGLYSLSSVVTVPSSSLGTQTYICNVNHKPSNTKVDKKVEPKSCDKTHTCPPCPAPEAAGAPSVFLFPPKPKDTLMISRTPEVTCVVVDVSHEDPEVKFNWYVDGVEVHNAKTKPREEQYNSTYRVVSVLTVLHQDWLNGKEYKCKVSNKALPAPIEKTISKAKGQPREPQVYTLPPSREEMTKNQVSLTCLVKGFYPSDIAVEWESNGQPENNYKTTPPVLDSDGSFFLYSKLTVDKSRWQQGNVFSCSVMHEALHNHYTQKSLSLSPGGGGGSGGGGSGGGGSEVQLLESGGGLVQPGGSLRLSCAASGFTFSDFWMHWVRQAPGKGLEWISYISGDSGYTNYADSVKGRFTISRDNSKNTLYLQMNSLRAEDTAVYYCARDRPYYYYMDVWGKGTTVTVSSGGGGSGGGGSGGGGSGGGGSDIQMTQSPSSLSASVGDRVTITCRASQSVSRSLAWYQQKPGKAPKLLIYAASSLQSGVPSRFSGSGSGTDFTLTISSLQPEDFATYYCQQYKSYPVTFGQGTKVEIK
light: not shown
As for B1, binding was characterised by a dissociation constant (Kd) of 424 nM.

B2: PMAB202 (bispecific antibody, human IgG1, kappa)
heavy: B1 heavy with D31S
light: not shown
On to B2, for which the dissociation constant (Kd) worked out at 755 nM.

B3: PMAB201 (bispecific antibody, human IgG1, kappa)
heavy: B1 heavy with S30T
light: not shown
On to B3, for which the Kd turned out to be 341 nM.

B4: PMAB274 (antibody, human IgG1, kappa, V domains shown)
VH: EVQLVQSGAEVKKPGASVKVSCKASGYTFTTYYMHWVRQAPGQGLEWMGIINPSGGSTSYAQKFQGRVTMTRDTSTSTVYMELSSLRSEDTAVYYCASGWVYWGQGTLVTVSS
VL: DIQMTQSPSSLSASVGDRVTITCQASRDIKNYLAWYQQKPGKAPKLLIYAASSLQSGVPSRFSGSGSGTDFTLTISSLQPEDFATYYCQQSYSTPPTFGPGTKVDIKR
In turn, B4 displayed a Kd of 1790 nM.

B5: PMAB277 (antibody, human IgG1, kappa, V domains shown)
VH: B4 VH
VL: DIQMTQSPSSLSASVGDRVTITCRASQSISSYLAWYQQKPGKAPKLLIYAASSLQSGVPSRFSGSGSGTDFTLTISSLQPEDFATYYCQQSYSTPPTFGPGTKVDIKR
Regarding B5, the Kd turned out to be 896 nM.

B6: PMAB275 (antibody, human IgG1, kappa, V domains shown)
VH: B4 VH with T28S, T31S
VL: B4 VL
As for B6, the Kd was determined as 849 nM.

B7: PMAB276 (antibody, human IgG1, kappa, V domains shown)
VH: B4 VH with T28S
VL: B4 VL
For the molecule B7, the Kd was 985 nM.

B8: PMAB278 (antibody, human IgG1, kappa, V domains shown)
VH: B4 VH with T28S, T31S
VL: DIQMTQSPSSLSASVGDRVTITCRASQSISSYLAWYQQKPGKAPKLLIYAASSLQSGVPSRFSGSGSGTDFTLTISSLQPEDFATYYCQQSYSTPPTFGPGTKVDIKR
Turning to B8, the Kd came to 892 nM.

B9: PMAB134 (bispecific antibody, human IgG1, kappa)
heavy: EVQLLESGGGLVQPGGSLRLSCAASGFTFSNSDMSWVRQAPGKGLEWVSGITISGGSTYYADSVKGRFTISRDNSKNTLYLQMNSLRAEDTAVYYCARGRGGSGWLDYWGQGTLVTVSSASTKGPSVFPLAPSSKSTSGGTAALGCLVKDYFPEPVTVSWNSGALTSGVHTFPAVLQSSGLYSLSSVVTVPSSSLGTQTYICNVNHKPSNTKVDKKVEPKSCDKTHTCPPCPAPEAAGAPSVFLFPPKPKDTLMISRTPEVTCVVVDVSHEDPEVKFNWYVDGVEVHNAKTKPREEQYNSTYRVVSVLTVLHQDWLNGKEYKCKVSNKALPAPIEKTISKAKGQPREPQVYTLPPSREEMTKNQVSLTCLVKGFYPSDIAVEWESNGQPENNYKTTPPVLDSDGSFFLYSKLTVDKSRWQQGNVFSCSVMHEALHNHYTQKSLSLSPGGGGGSGGGGSGGGGSEVQLLESGGGLVQPGGSLRLSCAASGFTFSDFWMHWVRQAPGKGLEWISYISGDSGYTNYADSVKGRFTISRDNSKNTLYLQMNSLRAEDTAVYYCARDRPYYYYMDVWGKGTTVTVSSGGGGSGGGGSGGGGSGGGGSDIQMTQSPSSLSASVGDRVTITCRASQSVSRSLAWYQQKPGKAPKLLIYAASSLQSGVPSRFSGSGSGTDFTLTISSLQPEDFATYYCQQYKSYPVTFGQGTKVEIK
light: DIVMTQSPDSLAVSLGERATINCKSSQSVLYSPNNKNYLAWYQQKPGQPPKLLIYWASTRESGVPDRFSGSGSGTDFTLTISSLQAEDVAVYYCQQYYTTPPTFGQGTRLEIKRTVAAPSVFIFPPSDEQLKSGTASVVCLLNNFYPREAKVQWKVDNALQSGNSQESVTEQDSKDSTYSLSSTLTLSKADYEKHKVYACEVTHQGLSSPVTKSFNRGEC
Consider B9, for which the Kd is 6 nM and 11.6 nM and 11.1 nM.

B10: PMAB199 (bispecific antibody, human IgG1, kappa)
heavy: EVQLLESGGGLVQPGGSLRLSCAASGFTFSSYDMSWVRQAPGKGLEWVSGITISGGSTYYADSVKGRFTISRDNSKNTLYLQMNSLRAEDTAVYYCARGRGGSGWLDYWGQGTTVTVSSASTKGPSVFPLAPSSKSTSGGTAALGCLVKDYFPEPVTVSWNSGALTSGVHTFPAVLQSSGLYSLSSVVTVPSSSLGTQTYICNVNHKPSNTKVDKKVEPKSCDKTHTCPPCPAPEAAGAPSVFLFPPKPKDTLMISRTPEVTCVVVDVSHEDPEVKFNWYVDGVEVHNAKTKPREEQYNSTYRVVSVLTVLHQDWLNGKEYKCKVSNKALPAPIEKTISKAKGQPREPQVYTLPPSREEMTKNQVSLTCLVKGFYPSDIAVEWESNGQPENNYKTTPPVLDSDGSFFLYSKLTVDKSRWQQGNVFSCSVMHEALHNHYTQKSLSLSPGGGGGSGGGGSGGGGSEVQLLESGGGLVQPGGSLRLSCAASGFTFSSYWMHWVRQAPGKGLEWVSYISGSGGYTNYADSVKGRFTISRDNSKNTLYLQMNSLRAEDTAVYYCARDRPYGYYMDVWGKGTTVTVSSGGGGSGGGGSGGGGSGGGGSDIQMTQSPSSLSASVGDRVTITCRASQSISSSLAWYQQKPGKAPKLLIYAASSLQSGVPSRFSGSGSGTDFTLTISSLQPEDFATYYCQQYKSYPVTFGQGTKVEIK
light: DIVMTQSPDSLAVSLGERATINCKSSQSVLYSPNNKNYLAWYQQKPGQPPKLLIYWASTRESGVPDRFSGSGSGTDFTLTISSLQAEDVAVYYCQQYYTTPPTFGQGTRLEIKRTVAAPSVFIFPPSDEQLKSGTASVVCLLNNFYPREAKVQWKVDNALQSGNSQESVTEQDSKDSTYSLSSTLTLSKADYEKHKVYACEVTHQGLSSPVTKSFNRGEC
As to B10, the Kd is 98.6 nM.

B11: PMAB142 (bispecific antibody, human IgG1, kappa)
heavy: B9 heavy
light: not shown
On to B11, for which the affinity, expressed as Kd, was 33 nM.

B12: PMAB194 (bispecific antibody, human IgG1, kappa)
heavy: B10 heavy with T114L
light: not shown
B12 displayed a Kd of 577 nM.

B13: PMAB138 (bispecific antibody, human IgG1, kappa)
heavy: B9 heavy with G50A
light: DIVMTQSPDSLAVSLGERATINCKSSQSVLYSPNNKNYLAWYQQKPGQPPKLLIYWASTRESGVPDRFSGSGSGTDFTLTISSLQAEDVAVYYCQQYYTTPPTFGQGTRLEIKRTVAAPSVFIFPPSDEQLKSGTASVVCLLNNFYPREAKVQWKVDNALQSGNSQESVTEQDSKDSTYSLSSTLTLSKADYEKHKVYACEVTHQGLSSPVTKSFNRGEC
With B13, binding was characterised by a dissociation constant (Kd) of 53 nM.

B14: PMAB183 (bispecific antibody, human IgG1, kappa)
heavy: B9 heavy with G50A, T52S, I53G
light: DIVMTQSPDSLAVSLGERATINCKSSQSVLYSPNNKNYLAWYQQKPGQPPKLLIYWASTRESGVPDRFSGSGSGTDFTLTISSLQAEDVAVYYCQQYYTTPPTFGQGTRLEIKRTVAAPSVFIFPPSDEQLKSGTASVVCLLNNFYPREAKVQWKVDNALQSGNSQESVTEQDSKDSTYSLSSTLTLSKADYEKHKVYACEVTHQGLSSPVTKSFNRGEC
As for B14, the Kd is 11300 nM.

B15: PMAB139 (bispecific antibody, human IgG1, kappa)
heavy: B9 heavy with T52S
light: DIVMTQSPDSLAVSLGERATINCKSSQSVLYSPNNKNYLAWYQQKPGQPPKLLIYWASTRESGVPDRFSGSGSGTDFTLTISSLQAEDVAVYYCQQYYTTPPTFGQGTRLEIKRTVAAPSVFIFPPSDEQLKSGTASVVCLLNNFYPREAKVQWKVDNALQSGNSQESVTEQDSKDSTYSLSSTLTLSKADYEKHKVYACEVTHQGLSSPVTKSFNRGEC
As for B15, the Kd stood at 50 nM. This Kd is about 230-fold lower than that of the molecule before.

B16: PMAB136 (bispecific antibody, human IgG1, kappa)
heavy: B9 heavy with S32Y
light: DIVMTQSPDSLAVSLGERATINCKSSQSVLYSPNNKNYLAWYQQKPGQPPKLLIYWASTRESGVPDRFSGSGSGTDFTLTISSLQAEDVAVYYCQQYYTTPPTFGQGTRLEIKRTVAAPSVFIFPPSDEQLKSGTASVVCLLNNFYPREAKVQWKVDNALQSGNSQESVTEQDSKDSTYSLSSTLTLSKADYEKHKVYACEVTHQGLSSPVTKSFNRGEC
For B16, the affinity, expressed as Kd, was 36 nM.

B17: PMAB140 (bispecific antibody, human IgG1, kappa)
heavy: B9 heavy with I53G
light: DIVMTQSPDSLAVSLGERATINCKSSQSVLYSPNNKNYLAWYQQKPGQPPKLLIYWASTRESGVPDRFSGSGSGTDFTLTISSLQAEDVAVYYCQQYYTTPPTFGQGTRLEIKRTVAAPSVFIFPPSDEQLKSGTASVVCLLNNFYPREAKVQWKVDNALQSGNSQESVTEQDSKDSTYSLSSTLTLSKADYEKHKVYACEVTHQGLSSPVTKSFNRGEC
In turn, B17 had a Kd of 22 nM. This Kd lies about 1.6-fold lower than the previous one.

B18: PMAB177 (bispecific antibody, human IgG1, kappa)
heavy: B9 heavy with N31S, S32Y, T52S
light: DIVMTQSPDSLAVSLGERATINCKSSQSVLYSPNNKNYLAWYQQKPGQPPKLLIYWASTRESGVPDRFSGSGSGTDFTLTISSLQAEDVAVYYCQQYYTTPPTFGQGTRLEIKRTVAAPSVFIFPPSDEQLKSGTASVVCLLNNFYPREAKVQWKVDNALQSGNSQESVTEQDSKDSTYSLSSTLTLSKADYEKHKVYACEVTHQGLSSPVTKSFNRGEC
The molecule B18 yielded a Kd of 809 nM.

B19: PMAB195 (bispecific antibody, human IgG1, kappa)
heavy: B10 heavy with T114L
light: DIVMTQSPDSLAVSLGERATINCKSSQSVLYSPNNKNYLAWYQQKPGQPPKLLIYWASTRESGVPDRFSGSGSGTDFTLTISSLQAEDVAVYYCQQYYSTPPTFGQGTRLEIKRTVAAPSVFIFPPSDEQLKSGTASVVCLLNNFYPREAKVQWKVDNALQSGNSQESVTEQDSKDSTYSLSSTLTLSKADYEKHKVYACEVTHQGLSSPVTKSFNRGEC
With B19, the affinity, expressed as Kd, was 651 nM.

B20: PMAB178 (bispecific antibody, human IgG1, kappa)
heavy: B9 heavy with N31S, S32Y, I53G
light: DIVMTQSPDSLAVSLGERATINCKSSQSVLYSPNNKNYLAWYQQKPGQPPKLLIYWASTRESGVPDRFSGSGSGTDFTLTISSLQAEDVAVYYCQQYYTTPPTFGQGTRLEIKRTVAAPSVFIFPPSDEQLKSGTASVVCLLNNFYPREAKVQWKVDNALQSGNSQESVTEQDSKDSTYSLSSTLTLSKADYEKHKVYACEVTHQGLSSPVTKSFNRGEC
As to B20, the affinity, expressed as Kd, was 1300 nM. Against the preceding molecule, the Kd is about 2-fold higher.

B21: PMAB175 (bispecific antibody, human IgG1, kappa)
heavy: B9 heavy with N31S, S32Y
light: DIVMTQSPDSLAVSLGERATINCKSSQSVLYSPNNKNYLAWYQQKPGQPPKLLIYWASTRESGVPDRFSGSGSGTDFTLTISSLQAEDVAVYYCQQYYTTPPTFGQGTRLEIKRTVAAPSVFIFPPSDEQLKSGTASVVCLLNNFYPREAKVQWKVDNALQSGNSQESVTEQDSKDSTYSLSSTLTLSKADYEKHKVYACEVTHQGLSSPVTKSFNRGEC
Molecule B21 yielded a Kd of 77.1 nM.

B22: PMAB135 (bispecific antibody, human IgG1, kappa)
heavy: B9 heavy with N31S
light: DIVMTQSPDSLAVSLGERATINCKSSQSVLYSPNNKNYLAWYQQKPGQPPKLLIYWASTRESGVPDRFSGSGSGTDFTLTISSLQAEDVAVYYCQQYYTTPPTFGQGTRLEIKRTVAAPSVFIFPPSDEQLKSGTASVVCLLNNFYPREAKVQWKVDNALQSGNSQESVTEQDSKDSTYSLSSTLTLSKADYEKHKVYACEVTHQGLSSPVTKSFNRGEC
For the molecule B22, the Kd turned out to be 3 nM.

B23: PMAB198 (bispecific antibody, human IgG1, kappa)
heavy: B10 heavy with T114D
light: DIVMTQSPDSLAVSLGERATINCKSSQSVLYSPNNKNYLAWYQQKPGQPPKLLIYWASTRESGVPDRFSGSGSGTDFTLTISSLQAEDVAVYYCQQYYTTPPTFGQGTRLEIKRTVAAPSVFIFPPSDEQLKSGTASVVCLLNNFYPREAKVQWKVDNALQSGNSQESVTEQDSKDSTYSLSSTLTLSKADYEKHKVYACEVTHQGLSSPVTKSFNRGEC
The molecule B23 showed a dissociation constant (Kd) of 104 nM.

B24: PMAB143 (bispecific antibody, human IgG1, kappa)
heavy: B9 heavy
light: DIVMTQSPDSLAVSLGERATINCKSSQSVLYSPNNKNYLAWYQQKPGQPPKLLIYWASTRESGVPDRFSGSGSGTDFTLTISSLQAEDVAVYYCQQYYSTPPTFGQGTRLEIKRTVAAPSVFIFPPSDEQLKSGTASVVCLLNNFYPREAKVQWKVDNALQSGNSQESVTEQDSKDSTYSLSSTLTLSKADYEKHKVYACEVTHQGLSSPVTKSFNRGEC
As to B24, the Kd was 17 nM.

B25: PMAB176 (bispecific antibody, human IgG1, kappa)
heavy: B9 heavy with N31S, S32Y, G50A
light: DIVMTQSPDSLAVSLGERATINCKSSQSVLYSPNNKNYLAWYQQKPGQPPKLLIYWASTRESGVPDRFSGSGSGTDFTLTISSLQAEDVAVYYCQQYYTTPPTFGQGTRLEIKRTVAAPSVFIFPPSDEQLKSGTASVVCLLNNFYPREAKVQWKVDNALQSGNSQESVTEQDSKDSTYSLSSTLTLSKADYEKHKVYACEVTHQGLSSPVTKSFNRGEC
B25 gave a Kd of 894 nM.

B26: PMAB119 (bispecific antibody, human IgG1, kappa)
heavy: QVQLVQSGAEVKKPGASVKVSCKASGYSFTTYYMHWVRQAPGQGLEWMGIIAPSGGSTSYAQKFQGRVTMTRDTSTSTVYMELSSLRSEDTAVYYCASGWVYWGQGTLVTVSSASTKGPSVFPLAPSSKSTSGGTAALGCLVKDYFPEPVTVSWNSGALTSGVHTFPAVLQSSGLYSLSSVVTVPSSSLGTQTYICNVNHKPSNTKVDKKVEPKSCDKTHTCPPCPAPEAAGAPSVFLFPPKPKDTLMISRTPEVTCVVVDVSHEDPEVKFNWYVDGVEVHNAKTKPREEQYNSTYRVVSVLTVLHQDWLNGKEYKCKVSNKALPAPIEKTISKAKGQPREPQVYTLPPSREEMTKNQVSLTCLVKGFYPSDIAVEWESNGQPENNYKTTPPVLDSDGSFFLYSKLTVDKSRWQQGNVFSCSVMHEALHNHYTQKSLSLSPGGGGGSGGGGSGGGGSEVQLLESGGGLVQPGGSLRLSCAASGFTFSDFWMHWVRQAPGKGLEWISYISGDSGYTNYADSVKGRFTISRDNSKNTLYLQMNSLRAEDTAVYYCARDRPYYYYMDVWGKGTTVTVSSGGGGSGGGGSGGGGSGGGGSDIQMTQSPSSLSASVGDRVTITCRASQSVSRSLAWYQQKPGKAPKLLIYAASSLQSGVPSRFSGSGSGTDFTLTISSLQPEDFATYYCQQYKSYPVTFGQGTKVEIK
light: not shown
As to B26, the Kd worked out at 96.9 nM.

B27: PMAB111 (bispecific antibody, human IgG1, kappa)
heavy: B26 heavy
light: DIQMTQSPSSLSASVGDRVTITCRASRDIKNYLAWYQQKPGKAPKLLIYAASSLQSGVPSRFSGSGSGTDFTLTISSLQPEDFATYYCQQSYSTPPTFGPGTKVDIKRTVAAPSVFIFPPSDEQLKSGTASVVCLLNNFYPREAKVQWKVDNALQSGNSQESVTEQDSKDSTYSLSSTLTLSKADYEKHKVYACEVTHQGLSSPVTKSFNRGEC
The molecule B27 had a Kd of 67.6 nM. The Kd values of the last two molecules are within 1.5-fold of each other.

B28: PMAB112 (bispecific antibody, human IgG1, kappa)
heavy: B26 heavy
light: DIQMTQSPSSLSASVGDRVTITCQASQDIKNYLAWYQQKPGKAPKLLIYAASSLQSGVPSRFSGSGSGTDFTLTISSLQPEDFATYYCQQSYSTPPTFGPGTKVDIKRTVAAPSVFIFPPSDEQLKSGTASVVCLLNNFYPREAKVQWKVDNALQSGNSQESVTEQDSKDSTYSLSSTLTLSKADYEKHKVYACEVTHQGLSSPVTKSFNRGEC
On to B28, for which the affinity, expressed as Kd, was 76.2 nM. This Kd and that of the molecule before are within 1.5-fold of each other.

B29: PMAB108 (bispecific antibody, human IgG1, kappa)
heavy: B26 heavy with S28T
light: not shown
Molecule B29 gave a Kd of 55.3 nM. The Kd values of the last two molecules are within 1.5-fold of each other.

B30: PMAB109 (bispecific antibody, human IgG1, kappa)
heavy: B26 heavy with T31S
light: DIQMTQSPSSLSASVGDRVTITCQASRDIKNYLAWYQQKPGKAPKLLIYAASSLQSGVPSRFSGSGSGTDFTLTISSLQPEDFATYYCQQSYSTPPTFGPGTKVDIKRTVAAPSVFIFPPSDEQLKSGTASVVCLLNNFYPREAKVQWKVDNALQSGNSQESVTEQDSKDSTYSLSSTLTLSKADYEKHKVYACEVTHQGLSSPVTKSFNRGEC
As to B30, binding was characterised by a dissociation constant (Kd) of 85.9 nM.

B31: PMAB115 (bispecific antibody, human IgG1, kappa)
heavy: B26 heavy
light: not shown
Regarding B31, the Kd is 229 nM.

B32: PMAB113 (bispecific antibody, human IgG1, kappa)
heavy: B26 heavy
light: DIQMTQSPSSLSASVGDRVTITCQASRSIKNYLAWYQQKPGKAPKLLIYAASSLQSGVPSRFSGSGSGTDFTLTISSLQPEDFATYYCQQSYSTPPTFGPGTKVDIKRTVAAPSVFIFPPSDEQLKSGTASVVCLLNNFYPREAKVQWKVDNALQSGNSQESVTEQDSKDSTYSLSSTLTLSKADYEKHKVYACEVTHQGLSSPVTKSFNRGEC
The molecule B32 had a Kd of 91.7 nM.

B33: PMAB114 (bispecific antibody, human IgG1, kappa)
heavy: B26 heavy
light: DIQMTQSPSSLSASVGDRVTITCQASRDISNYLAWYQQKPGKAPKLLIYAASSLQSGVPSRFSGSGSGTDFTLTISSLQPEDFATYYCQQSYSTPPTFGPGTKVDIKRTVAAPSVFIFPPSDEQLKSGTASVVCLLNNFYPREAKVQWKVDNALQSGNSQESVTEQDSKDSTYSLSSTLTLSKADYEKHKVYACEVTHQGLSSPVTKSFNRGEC
The molecule B33 returned a Kd of 113 nM.

The Kd is the concentration at which binding is half-saturated.
